The results in this text go back to publication PMC11310207 (Scientific Reports, 2024).

The term Ki denotes a dissociation constant, usually derived from enzyme kinetics or from competition with a known ligand. A higher Ki goes with lower affinity. One may read the Kd as the concentration at which binding is half-saturated.

Square brackets hold non-standard residues; d marks the D form. Ends that are not written are not given here. * marks the point of attachment. Dnp = O=[N+]([O-])c1ccc(*)c([N+](=O)[O-])c1; Mca = COc1ccc2c(CC(=O)*)cc(=O)oc2c1

In experiment [1] the target is human neurolysin (hNln), Ser38-Pro704, N-terminal 6xHis-tag, used in the activity assays (human, UniProt Q9BYT8 38-704). The experiment can be described thus: enzyme inhibition.
Experiment [2] deals with rNln (Met37–Ser704), C-terminal 6xHis-tag, catalytically active (UniProt P42676 37-704). The experiment can be described thus: fluorescence polarisation.

For the molecule YGGFLRR [dynorphin A (1–7)], in experiment [1], the binding result was “binds”.
In experiment [1], YGGFLRRIRPKL [dynorphin A (1–12)] registered a Ki of 900 nM. This lies in the sub-micromolar range.
As for Mca-PLGP[dK](Dnp)-OH [Mca–Pro–Leu–Gly–Pro–D–Lys(DNP)–OH, quenched fluorogenic substrate of Nln], in experiment [1], the binding result is reported as “binds”.
Take YGGFLRRIRP [dynorphin A (1–10)]: in experiment [1], the binding result is “binds”.
Consider YGGFLRRIRPK [dynorphin A (1–11)], for which the binding result in experiment [1] is reported as “binds”.
For the molecule {FAM}-GGFLRRIRPKLK [FAM-GGFLRRIRPKLK, N-terminally FAM-labeled Dyn A (2–13)], the Kd in experiment [2] stood at 1470 nM.
